Reference: patent publication US20220315670A1 (RESEARCH FOUNDATION FOR THE STATE UNIVERSITY OF NEW YORK, published 2022)
Residue numbers refer to the chain shown, from its start. In names and notes the source's numbering stands. Each block holds one binder with its values, some of them ahead of it.

Experiments:
trastuzumab (Herceptin) [1] = biological target: T1, trastuzumab (Herceptin); assay: ELISA screen of colony lysate on coated trastuzumab, 40 h with 1 uM 1HE, high-affinity panning
T1 construct: also called Tmab; not shown: the constant regions

trastuzumab (Herceptin) [2] = biological target: T1, trastuzumab (Herceptin); assay: dissociation ELISA on covalently immobilised trastuzumab
Procedure: (§1) Individual mutants were expressed and purified using a nickel chromatography resin, as previously described (16). […] The following day, unreacted sites were blocked with 10 mM ethanolamine in a 100 mM sodium bicarbonate buffer pH 9.5 for one hour. Purified mutants were incubated for one hour and subsequently washed three times with wash buffer. Following washing, 0.1% BSA PBS solution was added to the initial timepoint wells. […] At individual time points, the buffer in the time point wells was removed by pipetting, and the wells washed three times with wash buffer and 0.1% BSA PBS added. At the terminal time point, all wells were washed three times with wash buffer, and secondary antibodies added at the dilutions listed above for one hour at room temperature. Following secondary incubation, plates were washed three times with wash buffer and three times with dH₂O. 250 μl of 4 mg/ml PnPP in a 10 mM diethanolamine pH 9.8 buffer was added to each well, and absorbance values read for 10 minutes at 30-second intervals. The change in absorbance per minute for each well was divided by the average change in absorbance per minute for the initial time point wells, and the resulting dissociation curves fit to a monoexponential decay function in GraphPad Prism 7 (GraphPad, San Diego, Calif.). Each time point was run in triplicate for each mutant.

trastuzumab (Herceptin) [3] = biological target: T1, trastuzumab (Herceptin); assay: SPR, trastuzumab immobilized by amine coupling, 1HE at 10, 20 and 35 nM, 1:1 Langmuir fit
Procedure: (§2) A mobile phase of 0.05% Tween-20 PBS pH 7.4 was used at a flow rate of 25 μL/minute. […] Association and dissociation rate constants were determined using a 1:1 Langmuir binding model in the biosensor data analysis software Scrubber (BioLogic Software, Canberra, Australia).
(§3) An optimal range was 10 pM to 10 nM.

trastuzumab (Herceptin) [4] = biological target: T1, trastuzumab (Herceptin); assay: competition on SKOV3 cells, 125I-trastuzumab with increasing 1HE, cell-associated radioactivity
Procedure: Points represent the mean of triplicate samples with standard deviation error bars.
(§4) SKOV3 cells (ATCC, HTB-77) were grown in complete McCoys 5a media to confluency in a T75 flask and dissociated using 50 μM EDTA. […] Cells were incubated at 4° C. for 90 minutes to reach binding equilibrium followed by 4 washes with 1 mL of 1% BSA PBS buffer to remove non-specific radioactivity. Cell-associated radioactivity was assessed through gamma counting.

trastuzumab (Herceptin) [5] = biological target: T1, trastuzumab (Herceptin); assay: competition on SKOV3 cells, 200 pM 125I-trastuzumab with increasing 1HE, 4 C, 90 minutes, gamma counting
Procedure: as §4, §3

trastuzumab (Herceptin) [6] = biological target: T1, trastuzumab (Herceptin); assay: inferred from the IC50 of the SKOV3 cell competition assay with 200 pM 125I-trastuzumab
Procedure: as §4, §3

trastuzumab (Herceptin) [7] = biological target: T1, trastuzumab (Herceptin); assay: SPR, trastuzumab immobilized by amine coupling, 10-hour dissociation, 1:1 Langmuir fit
Procedure: as §2, §3

trastuzumab (Herceptin) [8] = biological target: T1, trastuzumab (Herceptin); assay: dissociation ELISA on covalently immobilised trastuzumab, 500 nM trastuzumab in the buffer
Procedure: as §1

trastuzumab (Herceptin) [9] = biological target: T1, trastuzumab (Herceptin); assay: dissociation ELISA on covalently immobilised trastuzumab, 1 uM 1HE in the buffer
Procedure: as §1

trastuzumab (Herceptin) [10] = biological target: T1, trastuzumab (Herceptin); assay: dissociation ELISA, trastuzumab covalently immobilized, 1 uM 1HE in buffer to block rebinding, monoexponential fit
Procedure: as §1

trastuzumab (Herceptin) [11] = biological target: T1, trastuzumab (Herceptin); assay: ELISA screen of colony lysate on coated trastuzumab, low-affinity panning

estimated half-life (trastuzumab (Herceptin) [1]): 15.7 h
B5: 2G2 (VHH)
VHH: EVQLVESGGGLVQAGDSLTLSCAASGRTFSSVAMGWFRQAPGKERKFVANISWNGDSTYYTDSVKGRFTISRDNAKNTVYLQMSSLKPEDTAVYYCAADVRWTGDGHRADNWGQGTQVTVSS

estimated half-life (trastuzumab (Herceptin) [1]): 17.7 h
B7: 2E11 (VHH)
VHH: B5 VHH with K87E, N111Y
notes: also called 1HE mutant 2E11

T1/2 (trastuzumab (Herceptin) [9]): 8.8 h
estimated half-life (trastuzumab (Herceptin) [1]): 29.6 h
B9: 2D11 (VHH)
VHH: B5 VHH with K76R, N111Y
notes: also called 1HE mutant 2D11

T1/2 (trastuzumab (Herceptin) [9]): 5.4 h
estimated half-life (trastuzumab (Herceptin) [1]): 26.9 h
B10: 2H2 (VHH)
VHH: B5 VHH with G9D, T28A, N111Y
notes: also called 1HE mutant 2H2

T1/2 (trastuzumab (Herceptin) [9]): 55.5 h
estimated half-life (trastuzumab (Herceptin) [1]): 30.8 h
B12: 2F9 (VHH)
VHH: B5 VHH with D105E, N111Y
notes: also called 1HE mutant 2F9

The next lines start with the binder.

B1: 2D7 (VHH)
VHH: B5 VHH with T103A, N111Y
estimated half-life (trastuzumab (Herceptin) [1]): 43.5 h

B2: 1HE, anti-idiotypic camelid single domain antibody against trastuzumab (VHH)
VHH: B5 VHH with N111Y
notes: also called wild-type 1HE; cold-1HE
T1/2 (trastuzumab (Herceptin) [2]): 17.4 h
Kd (trastuzumab (Herceptin) [3]): 0.0335 nM
IC50 (trastuzumab (Herceptin) [4]): 0.129 nM
IC50 (trastuzumab (Herceptin) [5]): 0.122 nM
Kd (trastuzumab (Herceptin) [6]): ≤ 0.122 nM
half-life of dissociation (trastuzumab (Herceptin) [7]): 26.6 h

B3: 1G11 (VHH)
VHH: B5 VHH with G10D, S31G, D56V, N111Y
T1/2 (trastuzumab (Herceptin) [8]): 35.1 h

B4: 1G1 (VHH)
VHH: B5 VHH with N54D, D56G, N74S, N111Y
T1/2 (trastuzumab (Herceptin) [8]): 12.1 h

B6: 2C4 (VHH)
VHH: B5 VHH with T103A, N111Y, Q117L
notes: also called 1HE mutant 2C4
T1/2 (trastuzumab (Herceptin) [9]): 84.1 h

B8: 1HE mutant 2E10 (L18Q, T103A) (VHH)
VHH: B5 VHH with L18Q, T103A, N111Y
estimated half-life (trastuzumab (Herceptin) [1]): 35.7 h
estimated binding half-life (trastuzumab (Herceptin) [10]): 482 h

B11: 1E10 (VHH)
VHH: B5 VHH with D16A, S17G, N111Y
notes: also called 1HE mutant 1E10
estimated half-life (trastuzumab (Herceptin) [11]): 19.3 h

B13: 2A4 (VHH)
VHH: B5 VHH with T58A, N111Y
notes: also called 1HE mutant 2A4
T1/2 (trastuzumab (Herceptin) [9]): 187 h
estimated half-life (trastuzumab (Herceptin) [1]): 70.8 h

B14: 1C3 (VHH)
VHH: B5 VHH with A97V, N111Y
T1/2 (trastuzumab (Herceptin) [8]): 12.1 h

B15: 1F3 (VHH)
VHH: B5 VHH with D56Y, N111Y
T1/2 (trastuzumab (Herceptin) [8]): 5.1 h
